Measured values taken from doi:10.1101/2023.07.17.549284.

Biological target: T1, ACADVL (mouse (endogenous in heart and kidney)), P50544
T1 chain: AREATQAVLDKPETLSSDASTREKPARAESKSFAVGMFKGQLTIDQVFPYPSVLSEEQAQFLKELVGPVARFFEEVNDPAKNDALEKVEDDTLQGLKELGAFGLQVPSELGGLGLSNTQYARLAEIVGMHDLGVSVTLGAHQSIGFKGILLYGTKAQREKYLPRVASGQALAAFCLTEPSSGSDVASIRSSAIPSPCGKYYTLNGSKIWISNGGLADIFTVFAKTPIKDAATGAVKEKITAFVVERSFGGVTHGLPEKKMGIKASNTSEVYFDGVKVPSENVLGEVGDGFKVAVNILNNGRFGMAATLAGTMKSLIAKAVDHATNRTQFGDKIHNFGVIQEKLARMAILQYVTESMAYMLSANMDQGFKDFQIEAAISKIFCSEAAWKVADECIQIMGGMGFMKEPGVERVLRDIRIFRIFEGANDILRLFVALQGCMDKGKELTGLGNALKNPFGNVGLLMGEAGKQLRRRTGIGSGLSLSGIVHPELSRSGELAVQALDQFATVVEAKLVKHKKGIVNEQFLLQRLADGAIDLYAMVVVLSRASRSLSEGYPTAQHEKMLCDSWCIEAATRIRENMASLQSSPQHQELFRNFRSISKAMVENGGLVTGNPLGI
Experiment: cryo-EM structure
Settings: remark: other sources report otherwise

- stoichiometry N: 2
B1: ACADVL, P50544 42-656 (natural protein)
chain: T1 chain
